Data reported in US20250269018A1, “COMBINED CANCER THERAPY WITH AN EPITHELIAL CELL ADHESION MOLECULE (EPCAM) INHIBITOR AND A HEPATOCYTE GROWTH FACTOR RECEPTOR (HGFR) INHIBITOR” (ACADEMIA SINICA, priority 2021, published 2025).

Experiments:
[1] = tested on: HCT116 cells; assay: Cell growth by WST-1 assay, HCT116; format: cell-based, human; settings: 50 nM EpEX and SU 10 μM, FIG. 2D
Protocol: FIGS. 2A to 2K. EpEX promotes tumor progression via HGFR signaling. (FIG. 2A) WT or EpCAM knockout (KO) HCT116 and HT29 cells treated with HGF (0.5 nM) for 15 min. The phosphorylation of HGFR, AKT, and ERK was examined by Western blotting. (FIG. 2B) WT or KO HCT116 and HT29 cells were treated with HGF (0.5 nM) with 2% FBS for the indicated times. Cell growth was examined by the WST-1 assay. (FIG. 2C) Starved HCT116 cells were treated with HGFR inhibitor SU11274 (SU, 10 μM) for 1 h then treated with 50 nM of EpEX-His for 15 min. The levels of phosphorylated HGFR, EGFR, AKT, and ERK were examined by Western blotting. HCT116 and HT29 cells were treated with 50 nM EpEX and SU (10 μM). (FIG. 2D) Cell growth was examined by WST-1 assay after treatment for indicated time. (FIG. 2E) HCT116 cells were treated with shLuc or HGFR shRNA then treated with 50 nM of EpEX-His for 15 min. The levels of phosphorylated HGFR, EGFR, ERK, and AKT were examined in HGFR knockdown HCT116 cells by Western blotting. (FIG. 2F) The levels of phosphorylated ADAM17 and presenilin 2 were examined by Western blotting. […]
Cell viability was assayed by measuring mitochondrial dehydrogenase activity with the WST-1 (4-[3-(4-lodophenyl)-2-(4-nitrophenyl)-2H-5-tetrazolio]-1, 3-benzene disulfonate) assay. […] Following the incubation, absorbance of each well was detected at 450 nm using a spectrophotometric microplate reader.

[2] = target: T1, EpCAM (Homo sapiens, UniProt P16422); assay: Antibody binding to EpCAM wild-type and mutants expressed in HEK293T cells (immunofluorescence, flow cytometry, cellular ELISA); settings: conclusion from deletion and point mutants
T1 sequence (P16422 24-314): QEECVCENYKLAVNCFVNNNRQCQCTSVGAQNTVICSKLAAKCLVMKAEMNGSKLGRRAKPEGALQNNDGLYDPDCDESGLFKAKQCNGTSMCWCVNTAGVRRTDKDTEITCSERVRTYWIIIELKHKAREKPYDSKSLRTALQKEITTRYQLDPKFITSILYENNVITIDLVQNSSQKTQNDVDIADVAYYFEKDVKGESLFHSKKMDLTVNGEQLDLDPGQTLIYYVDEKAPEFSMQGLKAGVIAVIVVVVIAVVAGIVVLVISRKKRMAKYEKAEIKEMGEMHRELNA
Protocol: FIGS. 8A to 8G. EpAb2-6 binds to both EGF-like domain I and II of EpCAM. HEK293T cells were transfected with full length or EGF like-domain deletion mutant EpCAM-V5. Antibody binding was assessed by (FIG. 8A) Western blotting, (FIG. 8B) flow cytometry, and (FIG. 8C) immunofluorescence. (FIG. 8D) EpCAM mutants were constructed with amino acid substitutions in the EGF-I (Y32A) and EGF-II (L94A, Y95A, or D96A) domains. EpCAM wild-type and mutant proteins were expressed in HEK293T cells. Binding of MT201, EpAb2-6 and EpAb23-1 to EpCAM wild-type and mutants were evaluated by (FIG. 8E) immunofluorescence, (FIG. 8F) flow cytometry, and (FIG. 8G) cellular ELISA.
A previous study identified the binding epitope of EpAb2-6 antibody as the LYD motif in EpCAM, which corresponds to amino acid residues 94-96; in particular, residue 95 (Y95) plays a major role in EpAb2-6 binding (Liao et al., 2015). […] Therefore, we wanted to determine whether the antibody binds to EpCAM at both EGF-like domains of EpEX (FIG. 8A, FIG. 8B, FIG. 8C). To confirm that EpAb2-6 recognizes the LYD motif in EpCAM, we constructed cDNA sequences encoding the first (aa 27-59; EGF-I domain) and second (aa 66-135; EGF-II/TY domain) EGF-like repeats of EpCAM. PCR-based site-directed mutagenesis was then used to introduce mutations into each domain (FIG. 8D). The reactivity of EpAb2-6 antibody toward these EpCAM mutants was evaluated by immunofluorescence (FIG. 8E), flow cytometry (FIG. 8F), and cellular ELISA (FIG. 8G).

[3] = tested on: HT29-Luc cells; assay: Orthotopic animal model, HT29-Luc; settings: FIG. 9H, 9I
Protocol: (FIG. 9C) Timeline of the experiment to evaluate EpAb2-6 and/or crizotinib in the in orthotopic animal models. (FIG. 9D) NOD/SCID mice received orthotopic implantation of HCT116-Luc cells and then were treated with control IgG (normal mouse IgG, NMIgG), crizotinib, EpAb2-6, or crizotinib combined with EpAb2-6 starting at 3 days after tumor inoculation (n=5). Tumor growth was monitored by examining bioluminescence with the IVIS 200 Imaging System. (FIG. 9E) HCT116-Luc tumor cells monitored by bioluminescence quantification. […] (FIG. 9H) NOD/SCID mice were orthotopically implanted with HT29-Luc cells and then treated with control IgG, crizotinib, EpAb2-6, or crizotinib combined with EpAb2-6 starting at 3 days after tumor inoculation (n=5). Tumor growth was monitored by examining bioluminescence with an IVIS 200 Imaging System. (FIG. 9I) HT29-Luc tumor cells monitored by bioluminescence quantification.
Orthotopic tumor models were created as previously reported (Chen et al., 2020). Briefly, NSCID mice were used for orthotopic implantation of HCT116 cells previously infected with Lenti-luc virus (lentivirus containing luciferase gene). […] Tumor development was monitored by bioluminescence imaging. […] Tumor progression was monitored by quantification of bioluminescence. Mouse survival was also monitored.

Cc1[nH]c(C=C2C(=O)Nc3ccc(S(=O)(=O)N(C)c4cccc(Cl)c4)cc32)c(C)c1C(=O)N1CCN(C)CC1 (stereo in doubt) [SU11274, (3Z)-N-(3-Chlorophenyl)-3-({3,5-dimethyl-4-[(4-methylpiperazin-1-yl)carbonyl]-1H-pyrrol-2-yl}methylene)-N-methyl-2-oxo-2,3-dihydro-1H-indole-5-sulfonamide]
EpEX-induced increases in cell viability and proliferation [1]: abolished the EpEX-induced increases in cell viability and proliferation

B1: EpAb2-6: anti-EpCAM neutralizing monoclonal antibody targeting EpEX; VH SEQ ID NO: 15, VL SEQ ID NO: 16 (antibody, listed as Homo sapiens, V domains shown)
VH: VKLQESGPELKKPGETVKISCKASGYTFTDYSMHWVKQAPGKGLKWMGWINTETGEPTYADDFKGRFAFSLETSASTAYLQINNLKNEDTATYFCARTAVYWGQGTTVTVSS
VL: DIQMTQSPSSLSASLGERVSLTCRASQEISVSLSWLQQEPDGTIKRLIYATSTLDSGVPKRFSGSRSGSDYSLTISSLESEDFVDYYCLQYASYPWTFGGGTKLEIKRADAAPTVS
EpEX domains and residues bound [2]: binds to the EGF-I and EGF-II domains of EpEX, respectively targeting amino acid residues Y32 and Y95 | bioluminescence intensities [3]: significantly decreased compared to the control IgG or crizotinib alone groups
